Measurements: a protein production outcome set (Wang et al. 2014)

Assay: label from the status in PepcDB records
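Note: failed if final PepcDB status was selected cloned or expressed and not failed if soluble or beyond.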

With “MIESIQELLQKEAQAVLNIPVTDAYEKAVELIVEQIHRKKGKLVTSGMGKAGQIAMNIATTFCSTGIPSVFLHPSEAQHGDLGILQENDLLLLISNSGKTREIVELTQLAHNLNPGLKFIVITGNPDSPLASESDVCLSTGHPAEVCTLGMTPTTSTTVMTVIGDILVVQTMKRTEFTIEEYSKRHHGGYLGEKSRKLCVK” the protein production was “not failed”.

In the case of “MSLIPKFRAWDTYEKEMLENVTPLFDDSNSMIAIITDFQIKGSPGTSEIEIGSYDTTFNWDEFPYVIMQSTGLKDKNGVEIFEGDILVYDAPKKYAHRRSMHEIAYADGRFFWEFLDLVFCQSNILYRDGYLVIGNIHENPELLEGNEGHHHHHH”, the protein production is reported as “not failed”.

For “MGLVGLHSGTIDMEFIGVEDHGDEEGKQIAVSVISSGKNADKTEDPDSLIFTGFGGTDMYHGQPCNQKLERLNIPLEAAFRKKSIVRVVRCMKDEKRTNGNIYIYDGTYMITNRWEEEGQNGFIVFKFKLVREPDQKPAFGIWKSIQNWRNGLSIRPGLILEDLSNGAENLKVCLVNEVDKENGPALFRYVTSLIHEVINNIPSMVDRCACGRRSCGSKHVFREKLSVSSSLVISAKKSGNVARFMNHSCSPNVFWQSIAREQNGLWCLYIGFFAMKHIPPLTELRYDYGKSRGGGKKMCLCRTKKCCGSFG”, the protein production was “failed”.

For “MSLSDWHLAVKLADQPLAPKSILQLPETELGEYSLGGYSISFLKQLIAGKLQESVPDPELIDLIYCGRKLKDDQTLDFYGIQPGSTVHVLRKSW”, the protein production was “not failed”.

For “MRKTWPLLTLLLCTCASAQLRADIAHNTPPGQATMQVYDGEKVLFQATTPGLNAVTASKFSPDGRWLLNIADGSGYVQLWDTAKGERVKTFLSVYFRIFGADFTPDSERLLLDFSGSKERADPRRPAYFPSPSLWNLATLERISFVYNDKRESFYNGKVTFSQDGERMAFVRPNAYSSGPASVWNAKTGAYIATISRLPYPKGAAQTGGAGAMDARLSPDGQRVLVRYVDNRLAEYDASTGTLLKVRGKFSAADAGAELERFAREGR”, the protein production was “failed”.

With “MSDDPEDRMLGWDESVFRDEHVFEIDWLPETFKHRDTQMETLKYALRPAVRGSRPLNVIARGPPGTGKTTAVQILFDELTAQTDVKTVRVNCQMDSTRYAVFSRLFAEIFDYEPPSSGISFKKLFSQITDKLVEEDEVLVVALDDVNYLFYESEASDTLYSLLRAHEAHSGAKIGVICVSSDLELDTIDALDTRVQSVFRPEEVYFNPYGQAEIADILGERADRGFNEGVVGPTVLDRVAELTEEQGGDLRVGIDLLRRAGMNAEMRASRSVETEDVEAAYDKSKYVHLSRRLRELSDSETALVEVIAAHDGQQAGDIYDAFSEQTDLGYTRYSEIINKLDQLDIIDADYTNVEGRGRSRELTLNYDADAVLERL” the protein production was “failed”.

For “MWSVTGALTVAVPPTAAACRTKPFLISSSFPKQTKKLHLSSPSLSLPSSHFSSSFKTAATSIEQQSSVNKGESTKYHFLVANAKFMLDEEEHFQEQLFERLRYFGERELVQDFWLVIEPKFLDNFPKITQRLRRPAVALVSTNGTWITFMKLRLDRVLYDSFEATSLDEALASNPTTLEFDKPKNWVAPYPKYEPGWWDTFLPKVTQESAV”, the protein production was “failed”.

In the case of “MSLRHLYIEEGRTVCASATSRNRRPTSESPHSDDVVVVEGMLRGRPETRVHAMFDGFQGRHSAMWLAQNVMNYLNDLRDVNEEEITRQFERMDGDLRAANLPGGSSALIIFVRYEKKPTEARVVGRQIVPEGAKEFTSVAEALGGPLMPVVAMNFRRDPRAAKGIYTIHVASLGNSRCVLKSGRTAIHLSTPHTASSHKERHRVQAAGGVFTTVNGELLLGGVVPMTRAFGSFDFKKGGQGKLQQDLVSAVPDVTTFFAYPGDDIVAGTAGAFAHFRSHAAIAAAIALYPVSPETVLDAAKAMVVNAKRRKVTKNISTFVRHLPESRTRSQKMLEGTSGENGEEDFSIDRTNELTQALQAGFFSFLLYYEGHHHHHH”, the protein production is reported as “not failed”.

For “MRIVGLTGGIASGKSTVSNLFKASGIPVVDADVVARDVLKKGSGGWKRVVAAFGEEILLPSGEVDRPKLGQIVFSSDSKRQLLNKLMAPYISSGIFWEILKQWASGAKVIVVDIPLLFEVKMDKWTKPIVVVWVSQETQLKRLMERDGLSEEDARNRVMAQMPLDSKRSKADVVIDNNGSLDDLHQQFEKVLIEIRRPLTWIEFWRSRQGAFSVLGSVILGLSVCKQLKIGS”, the protein production was “failed”.

For “MEIFELILLMLSAVFLSNVLSRFLPSIAVPLIQVVLGIILAIPLGDHTMDLNPELFLLLFMAPILFNDGASTDKKSLWKNRKAILSLSIGLVFVTVGVLGAFIHYLIPAIPFAAAFALAAALAPTDAVAVGALAEKVRVPHKIMHILEGESLINDASGLVSFQFAVLALVTGTFSFMSAGTSFLLLSLGGIALGAILSLLKIMLMRGLRQLGIENMTSFMLMEILLPFLIFMVAEKVGVNGILAVVSGGMVHSFSYKGLNPEIAQLNLLSKNTWSVIIFSLNGLVFILLGTQLPQILMTIWQDANIQKGMLFVYIIGITFLLLGLRFLWILFFRNYEENPKVDLVSRLKNTFLYTVAGVRGTITLVSALSLPFVLGNGNAFPERDLLIFIAAGVIITTLLLANFTLPLFADKKDKVTADHTTDIVLLRDIVQQLQAYKTDENAVEMNKVLNMYNNRIFSLMEHKEVNATEKELRRLTQEWQLENTRRLVFERKIDTGVGLSHMMRLGKRLYVQTRAEKYRARMRYRQLLSHRFRDFRFVPLTFEERRKEIAKLQNENNLFVMQKLQDLDSNEYNPEIISLYLMNFERALGRGKNKKESNDEALQTTIDLASQIERETIQRYFEKGTITRKEMKVYRDNLLAIEANMQLEF”, the protein production was “failed”.

With “MRPLISICMIVKNEAHILRQSLASFRKFTEEIIIVDTGSTDDTKEIAKEFTDFVYDFEWTGNFSDARNFAAKHATGKWILAIDADECLEEESYRKLEKQLKSPIEPIQMAQIISFTGEKGRVTTTNQMARVYKNDGTICFRGVIHEQLEAVDKHAIEAGLAEVKIYHYGYMSEIVEKQDKSDRNLRLLEKEVKNNKNSGFVHFNIGQEMNRLGNKKEALKEFSEAFRLRDNNHYIWAKLSAYHISELLEQEKRYDESLAIIEEAKVIWPNVPEFPLKKANILYVNHQLEDAKEIYKSLLENTAIDYQPIVLYEATNFMPHKMLGTIYLEEKDYTRAMTHFSKAYAENSSDYGVMFQMIMLLSKFHQPKEIFAFMERHNFISSTETGLRLLSMTTQQGYAELSELIVQSLTDVYPPVAEATEVKIATIRNVFPVISESAILFGIKEELIDAADLCLWHYENPQLPIERVMKNSDVGEIYDFIFENGPKISKKRYLFVLERAIALGKGEFADYLLALRNVYHDSINSHIADLFFQYDFADIALDFYNIVDADEVTKQGYINLINYLVDADVLDEALAIAERGIDNFSTDFRFYLWAIKIDTENRANRISEAMDEFPNNRYLAKLLDEVTMLQDTVTNNR” the protein production was “failed”.

In the case of “MTDPSQMQAEELLSFLEEGGTLKMLHDVSADTIEHIYAVGYNFFQSGKIEQAAKVFQLLSMLDHYQARFFIGLGAARQELGEYLQAIDAYSYAALVDINDPRPPFHSAECHLKLEQLTEAESGFYSAKEMSAGKSQYADLHQRAGIMLEAVRNKRSNLEHHHHHH”, the protein production is reported as “not failed”.

With “MNPGAYAVPSSAQGWTGTESIGKSSAVNHHRDDGGQEMAGALRKMAVYLGLVEDDRYDHRYADEYDDFEDFDEPLDERPSRNRSPRDDSRNNAVTDSSDHSPSRNERRSPAPAPATADLARITTLHPRTYNEARTIGEHFREGIPVIMNLTEMVDSDAKRLVDFAAGLIFGLHGSIERVTNKVFLLSPANVEVTAEDKARIAERGFFNQS” the protein production was “failed”.

With “MGGIPDITPYPLTYSLGGVIPLSSVLEMLWVEKYRPRSLDDIVDQKHVVERLKQFVKQRNMPHLLFAGPPGTGKTTAAHALAHDLFGENYRQYMLELNASDERGINVIREKVKEFARSRTPPEIPFKIVLLDEADNMTSDAQQALRRLMELYSSVTRFILIANYPSKIIDPIQSRCAFFRFQPLSKQDVIERLRYIAENEGVDYEEEALDAIYEISEGDMRKAINVLQAASYLGKVTVDAVYRVVGMAKPREVREMLATALKGDFTAARSLLRKIMIEYGMSGEDVARQIHRELFSTELKMPEELRVLAADYLGEVHYRLVEGSDDDIQLSAFLAWLTMMSRKLEV” the protein production was “not failed”.

With “MNIRPAATLVLTRDTDNGIEVLLLQRTWEAVFLPGYYVFPGGAVNAQEPEGRAHVVGVEDADISQTMSLDEGGADYMLAAVRECFEEAGILLAQDASGQLIGADHGVHSERMALFQEEISLAQLCAKHGLTVPLDRLAYLSHWVTPPGPPRRFDTRFFVAVAPEGQVASHDGTETIDHVWIAPAQALEEHRAGARLLGLPTIRTLRVLSEFGTTGEMMRYAHANPPEAFPDQPWPAVRKGKPVMLEPNAPAYDEAVKLDPEGEGSTRAEIVPGEPVEVAAGVIRLTAPNPGMMTGPGTNTYILGHERFTVLDPGPANEAHIERILELTGGVVDQVVVTHTHMDHSPAVAQLKARTGCRVFGWPAPEGAGQDQGFTPDDQPGHEDLIVTEAGILKVLHTPGHASNHLCYLLLDQELLFSGDHIMQGSTVVINPPDGDMKAYIDSMYDLLAEPVRFIAPAHGFLMGQPAAVMDYLITHRLSREHKVWRALEALAPVSLKDLTARAYDDVPAAIHGLAARSALAHLLKLEAEHRAFADDGLWQVVAPD” the protein production was “failed”.

With “MGGLTLFAAQGCKAPKQVAEQAEHPNIIYVFPDQYRNQAMGFWNQEGFRDKVNFRGDPVHTPNIDTFARESMVLTSAQSNCPLSSPHRGMLLTGMYPNRSGVPLNCNSTRPISSLRDDAECIGDVFSKAGYDCAYFGKLHADFPTPNDPENPGQYVETQRPVWDAYTPKEQRHGFNYWYSYGTFDEHKNPHYWDTDGKRHDPKEWSPLHESGKVVSYLKNEGNVRDTKKPFFIMVGMNPPHSPYRSLNDCEEQDFNLYKDQPLDSLLIRPNVDLNMKKAESVRYYFASVTGVDRAFGQILEALKQLGLDKNTVVIFASDHGETMCSQRTDDPKNSPYSESMNIPFLVRFPGKIQPRVDDLLLSAPDIMPTVLGLCGLGDSIPSEVQGRNFAPLFFDEKAEIVRPAGALYIQNLDGEKDKDGLVQSYFPSSRGIKTARYTLALYIDRKTKQLKKSLLFDDVNDPYQLNNLPLDENKEVVEQLYREMGTMLKEIDDPWYTEKILSDRIPYLEHHHHHH” the protein production was “failed”.

For “MTTAYNHLCTAFTRLSRFEHLSAIAGWDMQTMMPAKGNLARSEAMAELNVLQHQILTAPQIGEWLKQAEQELLDEQSIDELKLANLREMHRHYHNAVLLPESLVEAKSLAGARCEHAWRQQRIANDWAGFAENLREVVKLSREEAKIRAEAAGTSGYDALLNLYEPGTNSADIDRIFGDLKQWLPALLQKVTTKQQSSEPCLIPQGPFDLEKQRQLGLSVMKVLGFDFNGGRVDVSVHPFCGGVPQDVRITTRYNNQEFLSALMGIVHETGHARYEQNLPREWLGQPIAHARSTAIHESQSLLFEMQLARSNEFLQVIHPLVIQQFGEQPAFAEHNFIALNQRVKTGLIRVDADEVSYPAHVILRYEIEKALIGGEIDVEDIPALWNEKMQQYLGINTEGDYRNGCMQDIHWTDGAFGYFPTYTLGAMYAAQLFHAARSAIPALDSHIANGNLAPLLNWLQQNIWQHGSRYPTAELITKATGEPLNPRYFRQHLERRYL”, the protein production was “failed”.

For “MEYGAICTPFIFVVYAKSKYLCVLISNEMGKNKLEKFADMASYPHVFEYPYSAVDNVPFDMKGKWHQEFFGNDHPIVLELGCGRGEYTVGLGRMFPDKNFIAVDIKGSRMWTGATESLQAGMKNVAFLRTNIEIIERFFAAGEVSEIWLTFSDPQMKKATKRLTSTYFMERYRKFLKPDGIIHLKTDSNFMFTYTKYMIEANQLPVEFITEDLYHSDLVDDILSIKTYYEQQWLDRGLNIKYIKFRLPQEGVLQEPDVEIELDPYRSYNRSKRSGLQTSK”, the protein production was “failed”.

With “MITHISPAGSMDLLSQLEVERLKKTASSDLYQLYRNCTLAVLNSGSHTDNSKELLDKHQSFDVNVVRRERGIKLELTDPPEHAFVDGEIIKGIQEHLFSVLRDIVYVNMHLADSQRLNLTNPTHITNLVFGILRNAGALTPGIEPNLVVCWGGHSINGVEYQYTREVGNELGLRELNICTGCGPGAMEGPMKGAAIGHAKQRYTEQRYLGLTEPSIIAA” the protein production was “failed”.
